From US11583587B2, “Polymer” (VECTURA LIMITED, priority 2016, dated 2023)

Tests used:
[1] = system: complement proteins; experiment: Complement activation assay (residual haemolytic capacity of normal human serum); settings: at the protein concentrations investigated
Description: Polymer-lysozyme nanocomplexes or free lysozyme were kept in contact with normal human serum (NHS) and the residual haemolytic capacity was measured to study the complement activation. NHS was received from healthy volunteers, aliquoted and stored at −80° C. until use. Sheep erythrocytes were sensitised by rabbit anti-sheep erythrocyte antibodies at a final dilution of 1/800 v/v and these sensitised sheep erythrocytes were suspended at a final concentration of 1×10^8 cells mL^−1 in veronal-buffer saline (VBS2+, containing 0.5 mM Mg and 0.15 mM Ca2+). VBS2+ and NHS were mixed with polymer-lysozyme nanocomplexes or free lysozyme at final protein concentration of 1.116 mg mL^−1 so that the final dilution of NHS in the reaction mixture was 1/4 (v/v) in a final volume of 400 μl. […] The supernatant was collected and the optical density was measured at 415 nm with Dynex absorbance microplate reader (Dynex technologies, USA).
Sample without serum was used here as […] (100% complement activation, 0% sensitised sheep erythrocytes lysis) and employed to correct the absorbance values from the samples. […] They can be calculated by a linear fit to a log-log version of the Von Krogh (equation 1). Particularly, in this study, the data was expressed as the percentage of complement activation relative to 100% complement activation observed with our positive control samples.

[2] = system: trypsin; experiment: Protein protection against proteolytic enzymes (trypsin, then poly(allyl amine) disassembly); type: biochemical, bovine
Description: In order to assess the enzymatic activity of the lysozyme model protein, a turbidimetric enzymatic assay was performed by measuring the decrease in optical density of a suspension of Micrococcus lysodeikticus lyophilized cells, a natural substrate for lysozyme, in PB. Nanocomplexes and also free lysozyme were extracted from the dry powders as previously described, at a protein concentration of […] (as quantified by BCA assay). 10 mg of lyophilised cells were added to 20 mL of PB. 300 μL of this substrate suspension were added to 150 μL of particle solution and the decrease in optical density was measured at λ=460 nm as a function of time for 60 sec. The absorbance decay plots from 0 to 10 sec were fitted to a linear equation and the enzymatic activities were then determined from the slope of the fitted line. Not spray-dried free lysozyme was used in this work as reference (100% enzymatic activity).
Nanocomplexes were recovered from the dry powders as previously described, at a protein concentration of 37 μg mL^−1 (as quantified by BCA assay). 657 μg of trypsin (≥10,000 BAEE units/mg protein) were added to 4 mL of particle solution and the mixture was kept at room temperature for 3 h under gentle stirring. […] Lysozyme activity was then quantified as previously described. […]

Substance: lysozyme: Model protein; samples named lysozyme contained no polymer (lysozyme 5% w/w)
- hemolysis of sensitized sheep erythrocytes without serum [1]: did not lead to hemolysis
- decrease in enzymatic activity after trypsin ([2]; no polymer added to the dry powder): > 60%
- residual lysozyme activity after trypsin ([2]; trypsin 3 h in PB, then poly(allyl amine) 1 h, % of initial activity): less than 40%
